tested on: Saccharomyces cerevisiae; assay: transcriptional activation domain activity (GFP:mCherry ratio, weighted mean of sorted bins, harmonized to initial dataset scale) (arbitrary fluorescence ratio units); higher = stronger transcriptional activation; conditions: beta-estradiol 1 µM; induction time 4 h
Method in brief: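 The listed activation activity is a read-weighted mean of bin median fluorescence, averaged across barcodes and linearly mapped onto the initial dataset scale. Barcoded tiles, fused to an estradiol-inducible synthetic transcription factor, were integrated at URA3 in yeast diploids bearing a GFP reporter. Cells were held 4 hours at 30 °C in SC with 1 uM beta-estradiol, sorted into 8 GFP:mCherry bins, and sequenced, and tiles with fewer than 50 reads were excluded.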

Compared with “VLPPLLLAILFAVLPFILRGLAWYECIPRYSLISVSVYRRFFLFLLIHGFLIV”, “LLHILCFLMNLILTTLTLFVLLRDHLQLSCNVYTGLFFSCHTVSVAFSGVILL” is higher in “transcriptional activation domain activity” value: 65300 for the first, 66200 for the second.

Going from “AFLLFLLYLTFFCWVCFATSATWVWSEILSDNQYTESFMPINDVLLAVLSGII” to “MASPASSTEQQRAAKRKSHRKSRNGCFQCKQRHSKVSQSSTLLAAAASNLSRT”, the “transcriptional activation domain activity” value falls from 53100 to 27100.

First: LFTSIYYIIILSRSCLFFLFSLPLFQDALFLFVDSVQLYMWGILLFILSSLFF
Second: WYWLATTMYFLYGESVIYYFKHVVLVDKVLLPLATHHRFISFMLYIIGFVFFV
The “transcriptional activation domain activity” value of the first is lower: 42900 for the first, 60400 for the second.

Going from “DEPFKCTQSRCSIILPRDLMAVHFSYRRRTLKLIRSCPITKCSFRIRLFRPQS” to “MRLRVFFFISSFMWLLLVSFYCSFFSFAFTLFFFRFPPFFFSLFRFTLLPSPS”, the “transcriptional activation domain activity” value falls from 69700 to 63700.

Compared with “MFLLFRSPCLLVLYIFWVGQSGVGLRGVGVHHFFFFFFSLLAALLLFCLCGAI”, “MSTPFLANLLLIIWPTYYLLALSLHRALFQCTLSDFFSFFFFFFFFLFFLPFF” is higher in “transcriptional activation domain activity” value: 29400 for the first, 52800 for the second.

Going from “VHLLLTVFFHYVPTPDPFFTNLLLCPLDGLLRANSVTLALSLLSRPSINPLLV” to “MYYIVIYAFLYGIKYTHWIYFLSNNLVFWFLLLHFRHSHYGSLSYRYIIDHLL”, the “transcriptional activation domain activity” value rises from 58300 to 62500.

Going from “GFFFAIACLFICQGWMLGGDQSIKSISLGGGFLCLFFFSLFSFLFASWCVWLC” to “REYNRMLRFYGVQDHQVKNTRLSVKEAFMLIIYRCVEVFCLFILSLPMIVLAS”, the “transcriptional activation domain activity” value rises from 38700 to 58200.

Going from “HHDNVNPTIPPPDNYILNNENDDGLDNLLGMDYYNIDDLLTQELRDLDIPLVP” to “TSTGRFAFRQHRDHTTIHEGSWVSAGPGYDVGNRMWLLSRVVINAVVLELSSL”, the “transcriptional activation domain activity” value falls from 140000 to 42400.

Going from “PSRLTSPSSRRLPSTPGPHPRKSTPRSKPPPSSPARRRSSSTTPTGRPSQPSS” to “LSTVLKWSYEEIQVHIMTMRKEILNRRNHAYYDMYVLLLQLLLHIADSLTRGS”, the “transcriptional activation domain activity” value rises from 24900 to 45500.

Going from “MCPVLFCFYSPMILIFFFFSSFSYLLYIHTILSWFVCLLFVCYYECFLLLSFS” to “GEDTAQEGGEEGATSADEEETASTTRSGRKPKKIKTAVPIKRKRRSGRGGIAA”, the “transcriptional activation domain activity” value falls from 44700 to 31200.

First: DKNYNNLTVYNFVYLFGGRVHLYKNLTFHVVVTYVCVISSIVFFLVFIAKWYW
Second: ADEEPTSSLYRSNAKEVSRITTGSCSEIKNKLAGMQLGHNKQVSICSSGLCVP
The “transcriptional activation domain activity” value of the first is lower: 52100 for the first, 72000 for the second.

First: NHCKVFFLSFLFFVIYNYLLFILFFYILLLYCYPKPLFPLLSSSPPSFPPQFI
Second: NSIIPFFRFLGCIVLSGAFYFYIFFYAFLLCLFLIYFFFHGSKLGFFHFIFFP
The “transcriptional activation domain activity” value of the first is higher: 50300 for the first, 40600 for the second.

Compared with “IIPKIYFYGGYKGLLLFISSLSLTLLCYILITRPILSFLIVSDIVLNVIINIY”, “IAQLRRDLFHAVWRLILTPALAEAYCHGIVIMCGDGVLRRVFPRFLLYSADYP” is higher in “transcriptional activation domain activity” value: 63400 for the first, 63900 for the second.

Compared with “SPDQDPHRPKVESGGEEQEQLGPPKKKRRRQALNCTECKRRKIRCDRSQPCGP”, “MISFFCDIPVFSLLVPFLPLSFMFPMSPMFYYFFIYAVGCSIFLSLLFFSYVI” is higher in “transcriptional activation domain activity” value: 18300 for the first, 28100 for the second.

Compared with “VLYGRLRVKAQLLECALWNISAWLSLPDVERKSYTMLFTTLGGLYDMTCRIYL”, “LLSGRLFLGFYAAKNILRLARAFAATRQVIYDLGKFYRSPLTAPDRIAHLFPS” is lower in “transcriptional activation domain activity” value: 53000 for the first, 47000 for the second.

First: LRPHRYFHTNQIYYAAILIDLILRFTWLSRLSVRINWINDLESGVFVLMFLEV
Second: AHACIVLVVCEIDKTLGHSKHLLMIWLMRLLLLILNIMTIVGLFWSFLKCLDV
The “transcriptional activation domain activity” value of the first is lower: 62500 for the first, 70900 for the second.

First: MGLNLLVCIILVLHYFSTLLISFYFLLTVHTFRHIFAHSHSPVCMCLIFLTII
Second: MAALLWVLAVCLWIHPLSILAFTFHSVEGFKLVREILLDVLPTFDPHSYQIDG
The “transcriptional activation domain activity” value of the first is lower: 50200 for the first, 53200 for the second.

Compared with “GEGSAEDGGGSSEPRRLRRSHEACSRCRGKKIKCDSKHPRCTACATANTQCTQ”, “MSAVCMFLRNRALFIHIFSVALTLFHVGAFQLLHCNCAYGFLVWGFLGCSLSL” is higher in “transcriptional activation domain activity” value: 25100 for the first, 78500 for the second.

Going from “MLLSSLLCYFLNFSSSSHSVGGWFILPYGNRLLHVAFFPSLLLFRLFFFLWLA” to “LSSLPPSAPPFPPPSPLPPPLCFPLPPLFPPFLPSLSFPLSPPPSHFPFPLIP”, the “transcriptional activation domain activity” value falls from 52600 to 27100.

Going from “NKMKVHINKTNYELDSKEAVMAVLGTHRVEVSVLCLLYLVLRRHKKILDFASS” to “RGERGQGAGGRGEGEGRGAGGERERRGGEREEGRGRERDERQGGKRERERGQG”, the “transcriptional activation domain activity” value falls from 48200 to 21800.

First: FRPAPPPCSPAPPSPSSSPSSSSPPPPPPSRARRWSSAARARNAATTPCASSG
Second: FFLKVYLLNPLHMTRFADLLYQGAILNHVFQPYESHLQYLLQWMCDYNLYGCA
The “transcriptional activation domain activity” value of the first is lower: 37900 for the first, 70700 for the second.

First: DKATMRRAFFERIVTERINIMGKMSISLIHSLIVDCMFLSTARSFLWLLWAYV
Second: FFFSGTALRGIYVGCLVFLVLLWFLHMFFILFTFPFFFVLVWVLLFFRELHFA
The “transcriptional activation domain activity” value of the first is higher: 56300 for the first, 50600 for the second.

First: GEEKPKPVRRQRQPKDPNAPPPQRKKRKTAAEKAAEAAAAASTPTPAPAPAPA
Second: TSTAPHRGFGFVEFEHPEDAKAAQDNMHLSELYGKTIKVNLARPLKGAGPGGR
The “transcriptional activation domain activity” value of the first is lower: 13600 for the first, 57100 for the second.

Going from “ILVGGFGLELGMNGVYPWYIFLFLACLASDFEFTMLFELTVGFFFPPLLFMCL” to “AGGGNHPPPPPPPPPPAGRSGGAPPPPPPPPPPPPGAGGGNHPPPPPPPPPPP”, the “transcriptional activation domain activity” value falls from 51800 to 23500.

First: CIIIVFIIRFLVLDLIGMFVCIYWVSFLFYFILFYFISRMVLHRVFFFFSFLI
Second: KVKAEGEASDGGAPAPDAEGGAADDSAAGKKAARVRKPKAPRAPRPAGEDPVG
The “transcriptional activation domain activity” value of the first is higher: 49700 for the first, 34200 for the second.

Going from “FLTAIPAVPFAGGLSFNILLLFHHSLPFAGFLAHGFYRIIFPITLFFLPIFML” to “GEVTQKTRKGSTKHAQRATSGKASEKRRELSRKRKGRRKENARADDGTGEEEE”, the “transcriptional activation domain activity” value falls from 52900 to 17400.

Going from “QFALLLGSFLCVAISCFGHLALLFLWLIAPFYFLVFLFWQSFNLFLFVSVCCG” to “GDADEDGNGHGTHCSGTVAGKKYGVAKKANVYAVKVLRSNGSGSMSDVVKGVE”, the “transcriptional activation domain activity” value falls from 44700 to 30300.

First: EKKGKEGKRMRREKREIKEPEEKWEEKKKKPEEPEDVGARPRKPRREESKSRA
Second: LNWYWLASTMYFLYGESVIYYFKHIVLVDKVLLPLATHHRFISFLLYLMGFVF
The “transcriptional activation domain activity” value of the first is lower: 37600 for the first, 93000 for the second.

Going from “FRSGHSFPRKFGFCVEFTYNFISLLFNWFGLVSASIFFFCFSLFLFFVFYVLT” to “EDDDERRRKESSSSSRRKDRDRDDDGHERKDRKDRKHGSHRDRETDREREKRK”, the “transcriptional activation domain activity” value rises from 25000 to 33000.

Going from “ALNITYLFLGTYGWEYFGSCSVECALVCGRLAFRLSLIPYVLGRTSLLIYFIL” to “RQSTSRRSDPGPVSRVTELARSDQDTTTTKLVSRLRATAQIRVQVVLAIVFRH”, the “transcriptional activation domain activity” value rises from 41000 to 53200.

Compared with “IYAYRESWGIDGAVFCKSWMLYWLLMDIHWQVMETLIACYIPMQFSPFFVFPW”, “SNAAWGVMITFFQIIGLFDKYPIYWDSRLGDVVKAVSITILNTDYINLQCAYG” is higher in “transcriptional activation domain activity” value: 61700 for the first, 73900 for the second.

Compared with “PAANNPTGTLSSDELTFTHDLIEKVFNCNDKLSDNYNTQILSNTEHPLLTSYK”, “GLLYILFCYQMNLKTHSLKVIALAEESVRLVHDRQSKRLWLPSITWKKWFRTG” is higher in “transcriptional activation domain activity” value: 73500 for the first, 74800 for the second.

Going from “MDAPQNNSRGNNARRNRNRGGNRQSTGGVTKQQSQQQSKPAAKPVNVQTTVVI” to “VIYSHRYVFHKKKGLRHIHVLNGWYVLSRIIAVYVLQDFLGEGSSVVVIAFLR”, the “transcriptional activation domain activity” value rises from 47800 to 58700.

First: LVANDIIMGIALGSHIIENSELAATWVDTIFSTWSVDGLRRMIVWLMGWPGGL
Second: AYNALIFALVVCICTFGCCAYIFVSSLFIHKLYNKFIILAAHIWMIIFWLVDL
The “transcriptional activation domain activity” value of the first is lower: 27800 for the first, 62400 for the second.

First: VILYLLMLIGNVTVVSWIVSLFFLSRKSYLKLGFKMVLVRKWYFKNVCQYVDY
Second: MILARMLHIYIYKEIVDLTNVCIKCIKIISSEVRRVVLFNLDQTYETIPYIVE
The “transcriptional activation domain activity” value of the first is higher: 67400 for the first, 66600 for the second.

First: LRELHKSSFTNSLRQWVMSGVYQLDPFVRPYLRAYAIACLRIVFHILPHLTSM
Second: MLLLLPLHMLLQRHTLPNFFTFFSIIIIFLFLFSFFFFLFFFFLLFFLLLPGG
The “transcriptional activation domain activity” value of the first is lower: 48200 for the first, 76400 for the second.

Going from “ADCAVIGVVSEEEATELPRAYVVHAKGIPPSEHEAFGVSVQEWIKSRVARHKQ” to “EWNRSVNSTYPLLYRGVDFLQKSLSWLKILRLSYLHPLQFFGCFGFGLLVVHI”, the “transcriptional activation domain activity” value rises from 53600 to 60200.

Compared with “EKEARHAGRESRKAPEVREHRSSRRKDKERERSARPDNERRKTHVDGEDPEER”, “LACIVVCVIVYVVLTLLPLFYRDCPYLTPMSGPLWRFLQAFQFVSIVSFRRIY” is higher in “transcriptional activation domain activity” value: 23800 for the first, 41900 for the second.

Compared with “VAAVSRGEKERHRDRDREKKPSRSKPEKSSRRVVEKEEKTSSKGSASDKADKT”, “WPFDESIERNFSTTATAATGESKFDINDNCNRINSKSYSKTNSMNGNGMNNSN” is lower in “transcriptional activation domain activity” value: 39700 for the first, 28400 for the second.

First: TSAAPAFGTSGFSAAKPATPAQASAFGSPAALGAKASPWGAQNSSSSGTTAGA
Second: MMHCLRYFLLLLFLPFPSAPPYLLLLFIVSMFLYHRPCAYCTFLIMSIFSATC
The “transcriptional activation domain activity” value of the first is lower: 31100 for the first, 76700 for the second.

Compared with “KFPLFMLIAQGSFAFILWCFPFRSFLFIWALLMFTHTPLPSLLLLASCFSFSF”, “PFSFGLFLLYLCSCLTNCMTHIVFCLCSNIQLFFRFWFFYWIDHRPLGFFLAR” is lower in “transcriptional activation domain activity” value: 60100 for the first, 44700 for the second.

“TGGAGATRTSKAKADRHVTQAGHRRLRAQAACERCRRRKLKCEPSGASCVACV” was tested, and the “transcriptional activation domain activity” value was 48800.

Reference: the supplement of paper PMC12636428
